Data taken from publication PMC11071473 (bioRxiv, 2024).
Values joined by “and” are separate entries in the source; they are usually repeats but may differ in a detail not shown here. Equal values may be shown once.

Biological target: the molecule itself
Test: cryo-EM structure

B1: human polymerase theta helicase domain (PolθH, residues 2–894) (domain or fragment, UniProt O75417 2-894, looked up)
chain: NLLRRSGKRRRSESGSDSFSGSGGDSSASPQFLSGSVLSPPPGLGRCLKAAAAGECKPTVPDYERDKLLLANWGLPKAVLEKYHSFGVKKMFEWQAECLLLGQVLEGKNLVYSAPTSAGKTLVAELLILKRVLEMRKKALFILPFVSVAKEKKYYLQSLFQEVGIKVDGYMGSTSPSRHFSSLDIAVCTIERANGLINRLIEENKMDLLGMVVVDELHMLGDSHRGYLLELLLTKICYITRKSASCQADLASSLSNAVQIVGMSATLPNLELVASWLNAELYHTDFRPVPLLESVKVGNSIYDSSMKLVREFEPMLQVKGDEDHVVSLCYETICDNHSVLLFCPSKKWCEKLADIIAREFYNLHHQAEGLVKPSECPPVILEQKELLEVMDQLRRLPSGLDSVLQKTVPWGVAFHHAGLTFEERDIIEGAFRQGLIRVLAATSTLSSGVNLPARRVIIRTPIFGGRPLDILTYKQMVGRAGRKGVDTVGESILICKNSEKSKGIALLQGSLKPVRSCLQRREGEEVTGSMIRAILEIIVGGVASTSQDMHTYAACTFLAASMKEGKQGIQRNQESVQLGAIEACVMWLLENEFIQSTEASDGTEGKVYHPTHLGSATLSSSLSPADTLDIFADLQRAMKGFVLENDLHILYLVTPMFEDWTTIDWYRFFCLWEKLPTSMKRVAELVGVEEGFLARCVKGKVVARTERQHRQMAIHKRFFTSLVLLDLISEVPLREINQKYGCNRGQIQSLQQSAAVYAGMITVFSNRLGWHNMELLLSQFQKRLTFGIQRELCDLVRVSLLNAQRARVLYASGFHTVADLARANIVEVEVILKNAVPFKSARKAVDEEEEAVEERRNMRTIWVTGRKGLTEREAAALIVEEARMILQQDLVEM
- stoichiometry N: 4 and 2
